Source: patent publication US12319931B2, “Oncolytic virus expressing interferon and application therefor” (SHANGHAI YUANSONG BIOTECHNOLOGY CO. LTD., priority 2018, dated 2025)

System: HCC1806 xenograft tumor
Test: HCC1806 xenograft tumor model in nude mice
Type: in vivo
Conditions: virus intratumoral 1.5×10^10 VP/time/mouse, rIFN intraperitoneal 20 μg/time/mouse, 5 times
Experimental: When the experimental nude mice reached 5 weeks old, they were injected with 2×10^6 HCC1806 tumor cells for tumor formation. […] The tumor size was observed and measured every 3 days after administration of oncolytic virus.
Specifically, the triple negative breast cancer cell line HCC1806 xenograft tumor of nude mice with less immune cell infiltration were used for in vivo drug efficacy testing. […] The tumor size was measured every three days.

B1: recombinant interferon protein: consensus interferon rIFN protein; synthetic interferon with roughly the average sequence of human interferon-α subtypes (protein)
chain 1: MALSFSLLMAVLVLSYKSICSLGMCDLPQTHSLGNRRALILLAQMRRISPFSCLKDRHDFGFPQEEFDGNQFQKAQAISVLHEMIQQTFNLFSTKDSSAAWDESLLEKFYTELYQQLNDLEACVIQEVGVEETPLMNVDSILAVKKYFQRITLYLTEKKYSPCAWEVVRAEIMRSFSLSTNLQERLRRKE
chain 2: B1 chain 1
chain 3: B1 chain 1
modifications: consensus interferon coding sequence IFN-1; consensus interferon coding sequence IFN-2; consensus interferon coding sequence IFN-3
- tumor-suppressive effect: no obvious tumor-suppressive effect
